According to article PMC4131848:

Target: putative N-acetyltransferase from S. aureus subsp. aureus Mu50 (SaGNAT) (Staphylococcus aureus subsp. aureus Mu50)
Assay: SEC; Superdex 200, 50 mM Tris pH 8.0, 125 mM NaCl; elution compared with theoretical elution volumes for monomer, dimer and trimer

For “putative N-acetyltransferase from S. aureus subsp. aureus Mu50 (SaGNAT) (enzyme)”, the stoichiometry N was 2.
